# Laboratory results taken from article PMC10540216, “Activity Guided Azide-methyllysine Photo-trapping for Substrate Profiling of Lysine Demethylases” (Journal of the American Chemical Society, 2023).
# B1: ROCK1_HUMAN (protein, UniProt Q13464 2-1354, looked up)
# Rho-associated protein kinase …: STGDSFETRFEKMDNLLRDPKSEVNSDCLLDGLDALVYDLDFPALRKNKNIDNFLSRYKDTINKIRDLRMKAEDYEVVKVIGRGAFGEVQLVRHKSTRKVYAMKLLSKFEMIKRSDSAFFWEERDIMAFANSPWVVQLFYAFQDDRYLYMVMEYMPGGDLVNLMSNYDVPEKWARFYTAEVVLALDAIHSMGFIHRDVKPDNMLLDKSGHLKLADFGTCMKMNKEGMVRCDTAVGTPDYISPEVLKSQGGDGYYGRECDWWSVGVFLYEMLVGDTPFYADSLVGTYSKIMNHKNSLTFPDDNDISKEAKNLICAFLTDREVRLGRNGVEEIKRHLFFKNDQWAWETLRDTVAPVVPDLSSDIDTSNFDDLEEDKGEEETFPIPKAFVGNQLPFVGFTYYSNRRYLSSANPNDNRTSSNADKSLQESLQKTIYKLEEQLHNEMQLKDEMEQKCRTSNIKLDKIMKELDEEGNQRRNLESTVSQIEKEKMLLQHRINEYQRKAEQENEKRRNVENEVSTLKDQLEDLKKVSQNSQLANEKLSQLQKQLEEANDLLRTESDTAVRLRKSHTEMSKSISQLESLNRELQERNRILENSKSQTDKDYYQLQAILEAERRDRGHDSEMIGDLQARITSLQEEVKHLKHNLEKVEGERKEAQDMLNHSEKEKNNLEIDLNYKLKSLQQRLEQEVNEHKVTKARLTDKHQSIEEAKSVAMCEMEKKLKEEREAREKAENRVVQIEKQCSMLDVDLKQSQQKLEHLTGNKERMEDEVKNLTLQLEQESNKRLLLQNELKTQAFEADNLKGLEKQMKQEINTLLEAKRLLEFELAQLTKQYRGNEGQMRELQDQLEAEQYFSTLYKTQVKELKEEIEEKNRENLKKIQELQNEKETLATQLDLAETKAESEQLARGLLEEQYFELTQESKKAASRNRQEITDKDHTVSRLEEANSMLTKDIEILRRENEELTEKMKKAEEEYKLEKEEEISNLKAAFEKNINTERTLKTQAVNKLAEIMNRKDFKIDRKKANTQDLRKKEKENRKLQLELNQEREKFNQMVVKHQKELNDMQAQLVEECAHRNELQMQLASKESDIEQLRAKLLDLSDSTSVASFPSADETDGNLPESRIEGWLSVPNRGNIKRYGWKKQYVVVSSKKILFYNDEQDKEQSNPSMVLDIDKLFHVRPVTQGDVYRAETEEIPKIFQILYANEGECRKDVEMEPVQQAEKTNFQNHKGHEFIPTLYHFPANCDACAKPLWHVFKPPPALECRRCHVKCHRDHLDKKEDLICPCKVSYDVTSARDMLLLACSQDEQKKWVTHLVKKIPKNPPSGFVRASPRTLSTRSTANQSFRKVVKNTSGKTS
# B2: PR40A_HUMAN (protein, UniProt O75400 1-957, looked up)
# Pre-mRNA-processing factor 40 …: MRPGTGAERGGLMVSEMESHPPSQGPGDGERRLSGSSLCSGSWVSADGFLRRRPSMGHPGMHYAPMGMHPMGQRANMPPVPHGMMPQMMPPMGGPPMGQMPGMMSSVMPGMMMSHMSQASMQPALPPGVNSMDVAAGTASGAKSMWTEHKSPDGRTYYYNTETKQSTWEKPDDLKTPAEQLLSKCPWKEYKSDSGKPYYYNSQTKESRWAKPKELEDLEGYQNTIVAGSLITKSNLHAMIKAEESSKQEECTTTSTAPVPTTEIPTTMSTMAAAEAAAAVVAAAAAAAAAAAAANANASTSASNTVSGTVPVVPEPEVTSIVATVVDNENTVTISTEEQAQLTSTPAIQDQSVEVSSNTGEETSKQETVADFTPKKEEEESQPAKKTYTWNTKEEAKQAFKELLKEKRVPSNASWEQAMKMIINDPRYSALAKLSEKKQAFNAYKVQTEKEEKEEARSKYKEAKESFQRFLENHEKMTSTTRYKKAEQMFGEMEVWNAISERDRLEIYEDVLFFLSKKEKEQAKQLRKRNWEALKNILDNMANVTYSTTWSEAQQYLMDNPTFAEDEELQNMDKEDALICFEEHIRALEKEEEEEKQKSLLRERRRQRKNRESFQIFLDELHEHGQLHSMSSWMELYPTISSDIRFTNMLGQPGSTALDLFKFYVEDLKARYHDEKKIIKDILKDKGFVVEVNTTFEDFVAIISSTKRSTTLDAGNIKLAFNSLLEKAEAREREREKEEARKMKRKESAFKSMLKQAAPPIELDAVWEDIRERFVKEPAFEDITLESERKRIFKDFMHVLEHECQHHHSKNKKHSKKSKKHHRKRSRSRSGSDSDDDDSHSKKKRQRSESRSASEHSSSAESERSYKKSKKHKKKSKKRRHKSDSPESDAEREKDKKEKDRESEKDRTRQRSESKHKSPKKKTGKDSGNWDTSGSELSEGELEKRRRTLLEQLDDDQ
# B3: SRRT_HUMAN (protein, UniProt Q9BXP5 2-876, looked up)
# Serrate RNA effector molecule …: GDSDDEYDRRRRDKFRRERSDYDRSRERDERRRGDDWNDREWDRGRERRSRGEYRDYDRNRRERFSPPRHELSPPQKRMRRDWDEHSSDPYHSGYEMPYAGGGGGPTYGPPQPWGHPDVHIMQHHVLPIQARLGSIAEIDLGVPPPVMKTFKEFLLSLDDSVDETEAVKRYNDYKLDFRRQQMQDFFLAHKDEEWFRSKYHPDEVGKRRQEARGALQNRLRVFLSLMETGWFDNLLLDIDKADAIVKMLDAAVIKMEGGTENDLRILEQEEEEEQAGKPGEPSKKEEGRAGAGLGDGERKTNDKDEKKEDGKQAENDSSNDDKTKKSEGDGDKEEKKEDSEKEAKKSSKKRNRKHSGDDSFDEGSVSESESESESGQAEEEKEEAEEALKEKEKPKEEEWEKPKDAAGLECKPRPLHKTCSLFMRNIAPNISRAEIISLCKRYPGFMRVALSEPQPERRFFRRGWVTFDRSVNIKEICWNLQNIRLRECELSPGVNRDLTRRVRNINGITQHKQIVRNDIKLAAKLIHTLDDRTQLWASEPGTPPLPTSLPSQNPILKNITDYLIEEVSAEEEELLGSSGGAPPEEPPKEGNPAEINVERDEKLIKVLDKLLLYLRIVHSLDYYNTCEYPNEDEMPNRCGIIHVRGPMPPNRISHGEVLEWQKTFEEKLTPLLSVRESLSEEEAQKMGRKDPEQEVEKFVTSNTQELGKDKWLCPLSGKKFKGPEFVRKHIFNKHAEKIEEVKKEVAFFNNFLTDAKRPALPEIKPAQPPGPAQILPPGLTPGLPYPHQTPQGLMPYGQPRPPILGYGAGAVRPAVPTGGPPYPHAPYGAGRGNYDAFRGQGGYPGKPRNRMVRGDPRAIVEYRDLDAPDDVDFF
# B4: NU155_HUMAN (protein, UniProt O75694 2-1391, looked up)
# Nuclear pore complex protein …: PSSLLGAAMPASTSAAALQEALENAGRLIDRQLQEDRMYPDLSELLMVSAPNNPTVSGMSDMDYPLQGPGLLSVPNLPEISSIRRVPLPPELVEQFGHMQCNCMMGVFPPISRAWLTIDSDIFMWNYEDGGDLAYFDGLSETILAVGLVKPKAGIFQPHVRHLLVLATPVDIVILGLSYANLQTGSGVLNDSLSGGMQLLPDPLYSLPTDNTYLLTITSTDNGRIFLAGKDGCLYEVAYQAEAGWFSQRCRKINHSKSSLSFLVPSLLQFTFSEDDPILQIAIDNSRNILYTRSEKGVIQVYDLGQDGQGMSRVASVSQNAIVSAAGNIARTIDRSVFKPIVQIAVIENSESLDCQLLAVTHAGVRLYFSTCPFRQPLARPNTLTLVHVRLPPGFSASSTVEKPSKVHRALYSKGILLMAASENEDNDILWCVNHDTFPFQKPMMETQMTAGVDGHSWALSAIDELKVDKIITPLNKDHIPITDSPVVVQQHMLPPKKFVLLSAQGSLMFHKLRPVDQLRHLLVSNVGGDGEEIERFFKLHQEDQACATCLILACSTAACDREVSAWATRAFFRYGGEAQMRFPTTLPPPSNVGPILGSPVYSSSPVPSGSPYPNPSFLGTPSHGIQPPAMSTPVCALGNPATQATNMSCVTGPEIVYSGKHNGICIYFSRIMGNIWDASLVVERIFKSGNREITAIESSVPCQLLESVLQELKGLQEFLDRNSQFAGGPLGNPNTTAKVQQRLIGFMRPENGNPQQMQQELQRKFHEAQLSEKISLQAIQQLVRKSYQALALWKLLCEHQFTIIVAELQKELQEQLKITTFKDLVIRDKELTGALIASLINCYIRDNAAVDGISLHLQDICPLLYSTDDAICSKANELLQRSRQVQNKTEKERMLRESLKEYQKISNQVDLSNVCAQYRQVRFYEGVVELSLTAAEKKDPQGLGLHFYKHGEPEEDIVGLQAFQERLNSYKCITDTLQELVNQSKAAPQSPSVPKKPGPPVLSSDPNMLSNEEAGHHFEQMLKLSQRSKDELFSIALYNWLIQVDLADKLLQVASPFLEPHLVRMAKVDQNRVRYMDLLWRYYEKNRSFSNAARVLSRLADMHSTEISLQQRLEYIARAILSAKSSTAISSIAADGEFLHELEEKMEVARIQLQIQETLQRQYSHHSSVQDAVSQLDSELMDITKLYGEFADPFKLAECKLAIIHCAGYSDPILVQTLWQDIIEKELSDSVTLSSSDRMHALSLKIVLLGKIYAGTPRFFPLDFIVQFLEQQVCTLNWDVGFVIQTMNEIGVPLPRLLEVYDQLFKSRDPFWNRMKKPLHLLDCIHVLLIRYVENPSQVLNCERRRFTNLCLDAVCGYLVELQSMSSSVAVQAITGNFKSLQAKLERLH
# Test system: KDM4A-I71AzF
# Assay: CASI: photo-crosslinking with HEK293T cell extracts, StrepTactin enrichment and LC-MS/MS proteomics;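 further: lysates from HEK293T cells pretreated with a KDM4 inhibitor to raise proteome methylation, affinity-purified after ±UV, gel-resolved, trypsin-digested, with exclusive unique peptides per protein averaged per condition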
# Type: binding, human
# Settings: sheet "Final results but with 0.01"
row,Molecule,Fold change (+UV/-UV)
1,B1,0
2,B2,0.5
3,B3,0.5385
4,B4,1.36
